The record followed here is article PMC6689074, “In vivo Hox binding specificity revealed by systematic changes to a single cis regulatory module”.

Data set [1] addresses T1, Ultrabithorax isoform IVa (UbxIVa);Extradenticle (Exd);Homothorax HM domain (HthHM) (Drosophila melanogaster?;Drosophila …, UniProt P83949-5;P40427;O46339 1-346;1-376;1-211, ||). The experiment in a line: EMSA; increased with high-affinity overlapping site; EMSA: 6 nM 32P dsDNA probe, 200 nM Exd-HM, 30-180 nM Hox; 4% polyacrylamide gel, 120 V, 2.5 h, 4 C; buffer, salt and pH not given in material. The following applies: protein: recombinant;recombinant;recombinant; tags: His (pET21b);none (pET9a);His (pET21b); copies: 1;1;1; label: 32P. (In general: A gel shift assay detects complexes by their altered migration in electrophoresis.)

In data set [2] the target is T1, Ultrabithorax isoform IVa …. The experiment in a line: EMSA; strong binding; EMSA: 6 nM 32P dsDNA probe, 200 nM Exd-HM, 30-180 nM Hox; 4% polyacrylamide gel, 120 V, 2.5 h, 4 C; buffer, salt and pH not given in material. The conditions noted are these: protein: recombinant;recombinant;recombinant; tags: His (pET21b);none (pET9a);His (pET21b); copies: 1;1;1; label: 32P.

T1 sequence (P83949 other isoform, or with tags, fused parts or gaps ||, chain 1 of 3): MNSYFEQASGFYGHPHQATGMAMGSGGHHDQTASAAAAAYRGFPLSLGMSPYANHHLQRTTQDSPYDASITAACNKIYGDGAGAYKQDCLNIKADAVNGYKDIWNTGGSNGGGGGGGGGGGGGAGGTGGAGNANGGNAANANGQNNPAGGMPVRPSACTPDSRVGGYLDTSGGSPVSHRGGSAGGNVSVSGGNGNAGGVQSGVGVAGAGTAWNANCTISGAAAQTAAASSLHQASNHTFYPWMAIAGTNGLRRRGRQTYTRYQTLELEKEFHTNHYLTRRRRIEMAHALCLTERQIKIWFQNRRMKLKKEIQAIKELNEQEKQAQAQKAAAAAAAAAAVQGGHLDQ
T1 sequence (P40427 whole entry, chain 2 of 3, the tested form may be a part, canonical isoform): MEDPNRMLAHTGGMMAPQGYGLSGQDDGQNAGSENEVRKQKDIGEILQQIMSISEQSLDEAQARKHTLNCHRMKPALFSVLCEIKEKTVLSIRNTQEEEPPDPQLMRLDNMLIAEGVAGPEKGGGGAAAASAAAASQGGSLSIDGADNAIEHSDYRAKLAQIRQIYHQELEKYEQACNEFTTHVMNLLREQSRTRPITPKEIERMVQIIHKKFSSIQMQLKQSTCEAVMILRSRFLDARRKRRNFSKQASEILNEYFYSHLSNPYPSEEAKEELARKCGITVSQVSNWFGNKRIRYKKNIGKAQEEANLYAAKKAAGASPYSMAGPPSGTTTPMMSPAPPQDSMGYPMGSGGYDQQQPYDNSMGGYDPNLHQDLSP
T1 sequence (O46339 1-211, chain 3 of 3): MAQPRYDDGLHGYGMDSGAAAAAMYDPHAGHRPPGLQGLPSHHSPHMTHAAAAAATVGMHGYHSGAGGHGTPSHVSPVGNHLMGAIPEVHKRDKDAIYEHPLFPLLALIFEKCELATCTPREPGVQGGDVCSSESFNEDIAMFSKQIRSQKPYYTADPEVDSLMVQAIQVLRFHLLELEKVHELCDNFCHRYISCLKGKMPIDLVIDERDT

B1: main class 1 + overlapping high-affinity class 3 oligo (dsDNA)
DNA 1: ACGGGATTTGATTGATTTATTAGAATTCGGCGACGAACGAAAGC
DNA 2: GCTTTCGTTCGTCGCCGAATTCTAATAAATCAATCAAATCCCGT
In the case of B1, in data set [1], the binding result is on record as “binds”.

B2: mutant main + high-affinity overlapping class 3 oligo (dsDNA)
DNA 1: ACGGGATACGATTGATTTATTAGAATTCGGCGACGAACGAAAGC
DNA 2: GCTTTCGTTCGTCGCCGAATTCTAATAAATCAATCGTATCCCGT
B2: in data set [2], the binding result is “binds”.
